# System: CasDinG WT (Pseudomonas aeruginosa strain 83 (extrachromosomal plasmid))
# Assay: fluorescence anisotropy
# Details: 100 mM Tris pH 8.0, 1 mM TCEP, 5 mM MgCl2, +/- 1 mM AMP-PNP, 10 nM FAM-ssDNA, CasDinG 0-2.5 uM, room temperature
sequence,measurement,setting,value
TCGTCACCAGTACAAACTACAACGCCTGTAGCATTCCACA [40 nt ssDNA (oligo 7)],Kd,,26 nM
same,Kd,"no nucleotide, 5 mM Mg2+",25 nM

# Reference: publication PMC10450177
